The values that follow come from patent US20110166062A1 (INDIANA UNIVERSITY RESEARCH AND TECHNOLOGY, published 2011).

Bridges are numbered along the chain shown (N, C = ends). Where no end group is shown, it is not given here.

Assay in all cases: cell-based or functional assay
One assay has as its target glucagon receptor (UniProt P47871 26-477, limits assumed).
In another assay the target is GLP-1 receptor (UniProt P43220 24-463, limits assumed).
The target of a further assay is T1, GIP receptor (UniProt P48546 22-466).
T1 sequence (looked up): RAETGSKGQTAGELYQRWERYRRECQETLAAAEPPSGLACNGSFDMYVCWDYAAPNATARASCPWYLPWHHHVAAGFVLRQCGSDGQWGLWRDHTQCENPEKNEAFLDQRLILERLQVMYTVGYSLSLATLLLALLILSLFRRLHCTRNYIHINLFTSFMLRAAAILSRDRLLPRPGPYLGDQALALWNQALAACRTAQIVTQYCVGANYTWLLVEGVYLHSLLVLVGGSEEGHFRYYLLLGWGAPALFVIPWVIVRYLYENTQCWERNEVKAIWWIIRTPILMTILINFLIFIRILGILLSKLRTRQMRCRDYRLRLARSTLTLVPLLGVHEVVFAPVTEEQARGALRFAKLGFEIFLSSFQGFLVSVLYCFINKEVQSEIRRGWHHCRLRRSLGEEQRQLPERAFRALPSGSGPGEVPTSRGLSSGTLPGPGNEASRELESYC

Sequence of glucagon receptor (P47871 26-477 limits assumed): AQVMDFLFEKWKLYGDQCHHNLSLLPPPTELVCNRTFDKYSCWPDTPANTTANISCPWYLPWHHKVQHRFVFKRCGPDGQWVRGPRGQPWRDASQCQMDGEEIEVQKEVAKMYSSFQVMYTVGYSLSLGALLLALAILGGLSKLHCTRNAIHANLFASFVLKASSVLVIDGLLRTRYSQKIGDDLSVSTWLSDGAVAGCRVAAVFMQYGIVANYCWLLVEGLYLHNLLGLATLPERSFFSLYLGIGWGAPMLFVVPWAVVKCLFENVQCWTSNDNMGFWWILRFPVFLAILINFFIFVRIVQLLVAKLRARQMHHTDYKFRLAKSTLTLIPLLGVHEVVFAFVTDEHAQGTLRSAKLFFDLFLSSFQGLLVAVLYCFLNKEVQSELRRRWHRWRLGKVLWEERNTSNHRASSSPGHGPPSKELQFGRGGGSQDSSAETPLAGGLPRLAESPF

B1: mt-62 (peptide)
peptide: HSQGTFTSDYSIYLDEIHQKEFIAWLMNT-NH2
modifications: lactam 16-20; N-terminus assumed
SMILES: CC[C@H](C)[C@H](NC(=O)[C@H](Cc1ccccc1)NC(=O)[C@H](CCC(=O)O)NC(=O)[C@@H]1CCCCNC(=O)CC[C@H](NC(=O)[C@H](CC(=O)O)NC(=O)[C@H](CC(C)C)NC(=O)[C@H](Cc2ccc(O)cc2)NC(=O)[C@@H](NC(=O)[C@H](CO)NC(=O)[C@H](Cc2ccc(O)cc2)NC(=O)[C@H](CC(=O)O)NC(=O)[C@H](CO)NC(=O)[C@@H](NC(=O)[C@H](Cc2ccccc2)NC(=O)[C@@H](NC(=O)CNC(=O)[C@H](CCC(N)=O)NC(=O)[C@H](CO)NC(=O)[C@@H](N)Cc2c[nH]cn2)[C@@H](C)O)[C@@H](C)O)[C@@H](C)CC)C(=O)N[C@@H]([C@@H](C)CC)C(=O)N[C@@H](Cc2c[nH]cn2)C(=O)N[C@@H](CCC(N)=O)C(=O)N1)C(=O)N[C@@H](C)C(=O)N[C@@H](Cc1c[nH]c2ccccc12)C(=O)N[C@@H](CC(C)C)C(=O)N[C@@H](CCSC)C(=O)N[C@@H](CC(N)=O)C(=O)N[C@H](C(N)=O)[C@@H](C)O
As usually defined, the EC50 is the concentration at which the effect is half-maximal. Higher therefore signals lower potency in that assay. In the case of B1, the “EC50” value with glucagon receptor was determined as 0.45 nM; with GLP-1 receptor it was 0.1 nM; in the assay with GIP receptor, 5.18 nM. In addition, the relative activity with glucagon receptor stood at 42.2%; with GLP-1 receptor it was 40%; with GIP receptor, 1.6%.

B2: mt-96 (peptide)
peptide: YAEGTFISDYSIAMDEIHQKDFVNWLLAQ-NH2
modifications: lactam 16-20; N-terminus assumed
SMILES: CC[C@H](C)[C@H](NC(=O)[C@H](CO)NC(=O)[C@H](Cc1ccc(O)cc1)NC(=O)[C@H](CC(=O)O)NC(=O)[C@H](CO)NC(=O)[C@@H](NC(=O)[C@H](Cc1ccccc1)NC(=O)[C@@H](NC(=O)CNC(=O)[C@H](CCC(=O)O)NC(=O)[C@H](C)NC(=O)[C@@H](N)Cc1ccc(O)cc1)[C@@H](C)O)[C@@H](C)CC)C(=O)N[C@@H](C)C(=O)N[C@@H](CCSC)C(=O)N[C@@H](CC(=O)O)C(=O)N[C@H]1CCC(=O)NCCCC[C@@H](C(=O)N[C@@H](CC(=O)O)C(=O)N[C@@H](Cc2ccccc2)C(=O)N[C@H](C(=O)N[C@@H](CC(N)=O)C(=O)N[C@@H](Cc2c[nH]c3ccccc23)C(=O)N[C@@H](CC(C)C)C(=O)N[C@@H](CC(C)C)C(=O)N[C@@H](C)C(=O)N[C@@H](CCC(N)=O)C(N)=O)C(C)C)NC(=O)[C@H](CCC(N)=O)NC(=O)[C@H](Cc2c[nH]cn2)NC(=O)[C@H]([C@@H](C)CC)NC1=O
Turning to B2, the concentration giving a half-maximal response (EC50) with glucagon receptor came to 61.7 nM; with GLP-1 receptor it was 92.9 nM; with GIP receptor it was 0.058 nM. Further, the relative activity with glucagon receptor turned out to be 0.29%; with GLP-1 receptor, 0.04%; with GIP receptor, 84.5%.

B3: mt-99 (peptide)
peptide: YAEGTFISDYSIAMDKIHQQDFVNWLLAQKGKKNWLKHNITQ-NH2
With B3, the “EC50” value with glucagon receptor turned out to be 23300 nM; with GLP-1 receptor, 4550 nM; with GIP receptor, 0.049 nM. For the same molecule, the relative activity in the assay with glucagon receptor turned out to be 0%; in the assay with GLP-1 receptor it was 0%; in the assay with GIP receptor it was 100%.

B4: mt-107 (peptide)
peptide: HSQGTFISDYSKYLDEIHQKEFIAWLMNT-NH2
modifications: lactam 16-20; N-terminus assumed
SMILES: CC[C@H](C)[C@H](NC(=O)[C@H](Cc1ccccc1)NC(=O)[C@H](CCC(=O)O)NC(=O)[C@@H]1CCCCNC(=O)CC[C@H](NC(=O)[C@H](CC(=O)O)NC(=O)[C@H](CC(C)C)NC(=O)[C@H](Cc2ccc(O)cc2)NC(=O)[C@H](CCCCN)NC(=O)[C@H](CO)NC(=O)[C@H](Cc2ccc(O)cc2)NC(=O)[C@H](CC(=O)O)NC(=O)[C@H](CO)NC(=O)[C@@H](NC(=O)[C@H](Cc2ccccc2)NC(=O)[C@@H](NC(=O)CNC(=O)[C@H](CCC(N)=O)NC(=O)[C@H](CO)NC(=O)[C@@H](N)Cc2c[nH]cn2)[C@@H](C)O)[C@@H](C)CC)C(=O)N[C@@H]([C@@H](C)CC)C(=O)N[C@@H](Cc2c[nH]cn2)C(=O)N[C@@H](CCC(N)=O)C(=O)N1)C(=O)N[C@@H](C)C(=O)N[C@@H](Cc1c[nH]c2ccccc12)C(=O)N[C@@H](CC(C)C)C(=O)N[C@@H](CCSC)C(=O)N[C@@H](CC(N)=O)C(=O)N[C@H](C(N)=O)[C@@H](C)O
For the molecule B4, the “EC50” value with glucagon receptor amounted to 0.07 nM; with GLP-1 receptor, 24.8 nM; with GIP receptor it was 3.37 nM. Besides, the relative activity with glucagon receptor is 186%; with GLP-1 receptor, 0.16%; with GIP receptor, 0.74%.

B5: mt-100 (peptide)
peptide: YXEGTFISDYSIAMDKIHQQDFVNWLLAQKGKKNWLKHNITQ
modifications: C-terminal amide
B5: the results for the “EC50” value with glucagon receptor, with GLP-1 receptor and with GIP receptor were 1460 nM, 552 nM and 0.016 nM, respectively. Besides, the relative activity in the assay with glucagon receptor is 0.01%; with GLP-1 receptor, 0.01%; with GIP receptor it was 306%.

B6: mt-97 (peptide)
peptide: HAEGTFTSDYSIYMDEIHQKDFVNWLLAQ-NH2
modifications: lactam 16-20; N-terminus assumed
SMILES: CC[C@H](C)[C@H](NC(=O)[C@H](CO)NC(=O)[C@H](Cc1ccc(O)cc1)NC(=O)[C@H](CC(=O)O)NC(=O)[C@H](CO)NC(=O)[C@@H](NC(=O)[C@H](Cc1ccccc1)NC(=O)[C@@H](NC(=O)CNC(=O)[C@H](CCC(=O)O)NC(=O)[C@H](C)NC(=O)[C@@H](N)Cc1c[nH]cn1)[C@@H](C)O)[C@@H](C)O)C(=O)N[C@@H](Cc1ccc(O)cc1)C(=O)N[C@@H](CCSC)C(=O)N[C@@H](CC(=O)O)C(=O)N[C@H]1CCC(=O)NCCCC[C@@H](C(=O)N[C@@H](CC(=O)O)C(=O)N[C@@H](Cc2ccccc2)C(=O)N[C@H](C(=O)N[C@@H](CC(N)=O)C(=O)N[C@@H](Cc2c[nH]c3ccccc23)C(=O)N[C@@H](CC(C)C)C(=O)N[C@@H](CC(C)C)C(=O)N[C@@H](C)C(=O)N[C@@H](CCC(N)=O)C(N)=O)C(C)C)NC(=O)[C@H](CCC(N)=O)NC(=O)[C@H](Cc2c[nH]cn2)NC(=O)[C@H]([C@@H](C)CC)NC1=O
As for B6, the concentration giving a half-maximal response (EC50) with glucagon receptor amounted to 4.08 nM; with GLP-1 receptor, 2.36 nM; with GIP receptor, 1.75 nM. Also, the relative activity with glucagon receptor worked out at 3.19%; with GLP-1 receptor it was 1.27%; with GIP receptor, 2.81%.

B7: mt-95 (peptide)
peptide: HAEGTFISDYSIAMDEIHQKDFVNWLLAQ-NH2
modifications: lactam 16-20; N-terminus assumed
SMILES: CC[C@H](C)[C@H](NC(=O)[C@H](CO)NC(=O)[C@H](Cc1ccc(O)cc1)NC(=O)[C@H](CC(=O)O)NC(=O)[C@H](CO)NC(=O)[C@@H](NC(=O)[C@H](Cc1ccccc1)NC(=O)[C@@H](NC(=O)CNC(=O)[C@H](CCC(=O)O)NC(=O)[C@H](C)NC(=O)[C@@H](N)Cc1c[nH]cn1)[C@@H](C)O)[C@@H](C)CC)C(=O)N[C@@H](C)C(=O)N[C@@H](CCSC)C(=O)N[C@@H](CC(=O)O)C(=O)N[C@H]1CCC(=O)NCCCC[C@@H](C(=O)N[C@@H](CC(=O)O)C(=O)N[C@@H](Cc2ccccc2)C(=O)N[C@H](C(=O)N[C@@H](CC(N)=O)C(=O)N[C@@H](Cc2c[nH]c3ccccc23)C(=O)N[C@@H](CC(C)C)C(=O)N[C@@H](CC(C)C)C(=O)N[C@@H](C)C(=O)N[C@@H](CCC(N)=O)C(N)=O)C(C)C)NC(=O)[C@H](CCC(N)=O)NC(=O)[C@H](Cc2c[nH]cn2)NC(=O)[C@H]([C@@H](C)CC)NC1=O
For B7, the “EC50” value in the assay with glucagon receptor was found to be 280 nM; with GLP-1 receptor it was 48.9 nM; with GIP receptor, 0.465 nM. The relative activity worked out at 0.04% in the assay with glucagon receptor, 0.08% with GLP-1 receptor and 10.5% with GIP receptor.

B8: mt-98 (peptide)
peptide: YAEGTFTSDYSIYMDEIHQKDFVNWLLAQ-NH2
modifications: lactam 16-20; N-terminus assumed
SMILES: CC[C@H](C)[C@H](NC(=O)[C@H](CO)NC(=O)[C@H](Cc1ccc(O)cc1)NC(=O)[C@H](CC(=O)O)NC(=O)[C@H](CO)NC(=O)[C@@H](NC(=O)[C@H](Cc1ccccc1)NC(=O)[C@@H](NC(=O)CNC(=O)[C@H](CCC(=O)O)NC(=O)[C@H](C)NC(=O)[C@@H](N)Cc1ccc(O)cc1)[C@@H](C)O)[C@@H](C)O)C(=O)N[C@@H](Cc1ccc(O)cc1)C(=O)N[C@@H](CCSC)C(=O)N[C@@H](CC(=O)O)C(=O)N[C@H]1CCC(=O)NCCCC[C@@H](C(=O)N[C@@H](CC(=O)O)C(=O)N[C@@H](Cc2ccccc2)C(=O)N[C@H](C(=O)N[C@@H](CC(N)=O)C(=O)N[C@@H](Cc2c[nH]c3ccccc23)C(=O)N[C@@H](CC(C)C)C(=O)N[C@@H](CC(C)C)C(=O)N[C@@H](C)C(=O)N[C@@H](CCC(N)=O)C(N)=O)C(C)C)NC(=O)[C@H](CCC(N)=O)NC(=O)[C@H](Cc2c[nH]cn2)NC(=O)[C@H]([C@@H](C)CC)NC1=O
Turning to B8, the “EC50” value with glucagon receptor turned out to be 957 nM; in the assay with GLP-1 receptor, 2.82 nM; in the assay with GIP receptor, 0.196 nM. For the same molecule, the relative activity stood at 0.01% in the assay with glucagon receptor, 1.42% in the assay with GLP-1 receptor and 25% in the assay with GIP receptor.
